The results in this text go back to IntAct's records for PubMed 19461891.

B1: Defective in germ line development protein 3 (Caenorhabditis elegans), Q95ZK7-1 (parent)
chain: MGEQSHEKDHDEAHSYNPFVRSAVEYDADTRLQMAENAASARKLFVSSALKDIIVNPENFYHDFQQSAQMAEDANQRRQVSYNTKREAHIHQLKAQGLPLPSNIPMIEINPTRVTLNMEFESQYYSLMTSDNGDHENVASIMAETNTLIQLPDRSVGGTTPDPFAQQVTITGYFGDVDRARMLMRRNCHFTVFMALSKMKMPLHELQAHVRQNPIQNVEMSFVDAPEKNGIVTTYLRITAREKNQHELIEAAKRLNEILFRESPAPENNFTLHFTLSTYYVDQVLGSSSTAQLMPVIERETTTIISYPCYNNRNETRGNIYEIKVVGNIDNVLKARRYIMDLLPISMCFNIKNTDMAEPSRVSDRNIHMIIDESGIILKMTPSVYEPADLLSGEVPLNCASLRSKEFNIKKLYTAYQKVLSKKFDFIAPQPNDYDNSIWHHSLPANFLKNFNMPCRGELSDGSNGRRHRSSSIASSRSKHSYMSKGKQFSESSGGPSRSHTRVSSFSENSSTVPIMQFPTPHFAPPMLTPHHHMLKYVYLQQHQQAQTFLKGAAGLHPGTHIMFPPPIIVDGSFVSALPFADPVVFDGFPYVHGLFPVNEAEQHRNHRESSPSLRSTQEIRKPSRNMGNRPSSSTGSYYPSTTPRQRVYEQVREDDLRSHIGSRRTSVNGDDQNVESMHDQGYERQYPRQHQRLQKDDQQRWKTGSRGDIHSSRTINVHRDVRNSNEYDFHVGNSGPAKRSPSLEQVQLQMTHHLKLKSNDVDLDHEKLYMHESPHNDSDTTVSASGFGNDLMDGDFVQRFLSNANINESGRRPRTVSCFTEKDGQSARYIDSDGAYSVVDHASTHQSRSYDSFRKVGDNGVTKTILEPRARVEKDYGKISLEHKTKYSNEYGDEEKSAENDTSSLGSRQYRIDPMKLIASVRESSEQLPRIHERQFSDVLNEKEKEIADKSIESTVTQDLSLDETSTY
partner: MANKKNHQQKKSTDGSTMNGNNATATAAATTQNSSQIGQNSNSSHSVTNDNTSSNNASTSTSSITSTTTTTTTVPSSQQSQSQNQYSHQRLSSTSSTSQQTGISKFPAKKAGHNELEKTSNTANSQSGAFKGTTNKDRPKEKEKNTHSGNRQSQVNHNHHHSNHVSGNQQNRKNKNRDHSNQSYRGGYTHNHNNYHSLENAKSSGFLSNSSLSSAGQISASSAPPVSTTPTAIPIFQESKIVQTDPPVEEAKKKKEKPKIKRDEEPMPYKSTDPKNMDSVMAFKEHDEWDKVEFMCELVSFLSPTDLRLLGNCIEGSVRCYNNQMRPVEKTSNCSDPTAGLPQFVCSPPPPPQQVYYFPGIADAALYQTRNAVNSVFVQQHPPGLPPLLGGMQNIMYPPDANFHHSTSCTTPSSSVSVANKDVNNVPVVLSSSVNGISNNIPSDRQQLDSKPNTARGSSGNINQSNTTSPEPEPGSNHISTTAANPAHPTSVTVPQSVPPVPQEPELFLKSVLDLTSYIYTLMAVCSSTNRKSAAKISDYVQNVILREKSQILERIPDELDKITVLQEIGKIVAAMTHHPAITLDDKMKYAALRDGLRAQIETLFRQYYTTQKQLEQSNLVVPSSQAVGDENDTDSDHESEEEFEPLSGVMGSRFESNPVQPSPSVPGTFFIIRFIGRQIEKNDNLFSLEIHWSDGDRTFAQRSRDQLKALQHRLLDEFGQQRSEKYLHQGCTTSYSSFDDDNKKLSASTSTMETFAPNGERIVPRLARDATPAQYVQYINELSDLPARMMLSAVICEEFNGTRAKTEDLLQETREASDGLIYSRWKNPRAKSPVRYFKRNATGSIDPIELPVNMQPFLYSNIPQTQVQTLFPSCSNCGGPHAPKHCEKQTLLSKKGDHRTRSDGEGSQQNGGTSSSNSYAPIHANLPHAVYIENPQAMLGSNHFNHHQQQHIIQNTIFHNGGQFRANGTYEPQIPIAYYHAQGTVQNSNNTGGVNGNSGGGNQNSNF

Variants of B1 are the subject of the assay. Conditions: with gls-1, Q8I4M5-3.
With G327R, the “effect of a mutation on the interaction” value was “disrupting interaction strength”.
